# Results taken from patent US8236527B2, “Recombinant production of authentic human proteins using human cell expression systems” (Humanzyme Limited, priority 2008, dated 2012).
# Columns and labels:
# Format in all cases: cell-based
# [1] = test system: whole CD4+ cells from a healthy donor; assay: Th17 polarizing cytokines: IL-17 secretion from human CD4+ cells (ELISA); conditions: for induction of IL-17 secretion: compared with cytokines from insect cell or bacterial expression system, 5 days
# Source text: IL-17-producing CD4+ T cells (Th-17 cells) have been identified as a unique subset of Th cells that develop along a pathway that is distinct from the Th1, and Th2-cell differentiation pathways. This finding has provided exciting new insights into immunoregulation, host defense and the pathogenesis of autoimmune diseases. Recently it has been shown that IL1β, IL6 and IL23 are important in driving human Th17 differentiation. However, TGF-β1, which is important for the differentiation of murine Th17 cells, is reported to be not required, and even inhibits human Th17 differentiation (McGeachy & Cua (2008) Immunity 28:445, Chen & O'Shea (2008) Cytokines 41:71). In this study, whole […] cells isolated from a healthy donor were stimulated with 10 μg/mL plate bound anti-CD3 and 10 μg/ml soluble anti-CD28 in the presence of Th17 polarizing cytokines from the inventive human cell expression system and from an insect cell or bacterial expression system. After 5 days supernatants were harvested for measurement of IL-17 by ELISA.
# [2] = test system: naïve T cell (Th0); assay: Differentiation of naive T cell (Th0) to Th17 cells, flow cytometry; conditions: compared with human platelet derived native TGF-β1 (positive control)
# Method: (§1) FIG. 22: Efficient differentiation of Th17 cells with authentic cytokines expressed in human cells. Whole CD4+ T cells isolated from a healthy donor were stimulated with 2 μg/mL plate bound anti-CD3 and 1 μg/mL soluble anti-CD28 in the presence of Th17 polarizing cytokines, including a titration of IL-23. After 5 days, supernatants were harvested for measurement of IL-17 by ELISA. See (A)-(G). FIG. 22 (H) depicts flow cytometry analysis on Human Th17 Differentiation by Authentic human TGF-β1. See Example 17 below.
# [3] = test system: mouse splenocytes; assay: IL-23 activity: dose-dependent secretion of IL-17 from mouse splenocytes activated with PMA; conditions: 10 ng/ml PMA
# [4] = test system: human CD4+ T cells; assay: IL-23 activity: IL-17 secretion from human CD4+ T cells (ELISA)
# Method: (A) IL-23 activities determined by the dose-dependent secretion of IL-17 from mouse splenocytes activated with 10 ng/ml PMA. (B) IL-23 activities determined by the dose-dependent secretion of IL-17 from human CD4+ T cells stimulated with […] plate bound anti-CD3 and […] soluble anti-CD28 in the presence of Th17 polarizing cytokines.
# as §1
# IL-17-producing CD4+ T cells (Th17 cells) have been identified as a unique subset of T helper cells that develop along a pathway that is distinct from the Th1 and Th2-cell differentiation pathways. This finding has provided exciting new insights into immunoregulation, host defense and the pathogenesis of autoimmune diseases. Recently it has been shown that TGF-β1, […], IL-6 and IL-23 are important in driving human Th17 differentiation (Chen & O'Shea (2008) Cytokines 41:71). […] The activities were further assayed with human CD4+ cells which were isolated from a healthy donor and stimulated with 10 μg/ml plate bound anti-CD3 and 10 μg/ml soluble anti-CD28 in the presence of Th17 polarizing cytokines. After 5 days supernatants were harvested for measurement of IL-17 by ELISA.
molecule,measurement,setting,value
"authentic human TGF-β1: TGF-β1 from engineered human 293 cells, disulfide-linked dimer of 25 kD",induction of IL-17 secretion,[1],effective in enhancing the effect
same,Th17 cell polarization,"[1]; separate study, same condition",can effectively induce Th17 cell polarization
same,differentiation of Th0 to Th17 cells (IL-17 and INF-γ producing cells),[2],matched human platelet derived native TGF-β1
"authentic human IL-23: IL-23 from engineered human HEK293 cells, disulfide-linked heterodimer of 55 kD (protein, UniProt Q9NPF7 20-189; P29460 23-328, looked up) Interleukin-23 subunit alpha: RAVPGGSSPAWTQCQQLSQKLCTLAWSAHPLVGHMDLREEGDEETTNDVPHIQCGDGCDPQGLRDNSQFCLQRIHQGLIFYEKLLGSDIFTGEPSLLPDSPVGQLHASLLGLSQLLQPEGHHWETQQIPSLSPSQPWQRLLLRFKILRSLQAFVAVAARVFAHGAATLSP Interleukin-12 subunit beta: IWELKKDVYVVELDWYPDAPGEMVVLTCDTPEEDGITWTLDQSSEVLGSGKTLTIQVKEFGDAGQYTCHKGGEVLSHSLLLLHKKEDGIWSTDILKDQKEPKNKTFLRCEAKNYSGRFTCWWLTTISTDLTFSVKSSRGSSDPQGVTCGAATLSAERVRGDNKEYEYSVECQEDSACPAAEESLPIEVMVDAVHKLKYENYTSSFFIRDIIKPDPPKNLQLKPLKNSRQVEVSWEYPDTWSTPHSYFSLTFCVQVQGKSKREKKDRVFTDKTSATVICRKNASISVRAQDRYYSSSWSEWASVPCS","activity relative to insect cell IL-23, IL-17 secretion from mouse splenocytes",[3],ten fold more active
same,fold more potent than the cytokine produced from insect cells (FIG. 21 heading),[4]; assay not specified in the heading,500 fold
same,concentration at which maximum induction of IL-17 secretion was achieved,"[4]; human CD4+ cells, 5 days",0.1 ng/mL
same,fold more potent for inducing IL-17 secretion than insect cell IL-23,"[4]; human CD4+ cells, anti-CD3 and anti-CD28, Th17 polarizing cytokines, 5 days",100 fold
same,induction of IL-17 secretion,[1],significantly more effective
